Laboratory results from paper PMC9664404, “DNA-mediated proteolysis by neutrophil elastase enhances binding activities of the HMGB1 protein” (The Journal of Biological Chemistry, 2022).
Values belong to the binder of their own block, whether it stands above or below them.

What was measured:
TLR4•MD-2 complex = biological target: T1, TLR4•MD-2 complex (UniProt O00206 24-631; Q9Y6Y9 19-160); assay: SPR; TLR4•MD-2 complex immobilised on a CM5 chip by amine coupling (1200 RU); HMGB1 proteins injected at 30 μl/min, 25 °C; 10 mM Hepes (pH 7.4), 150 mM NaCl, 3 mM EDTA, 0.005% v/v Tween-20; 1:1 binding model; Biacore T-100; three independent experiments; conditions: both partners purified
T1 construct: toll-like receptor 4 (TLR4) of the bought TLR4•MD-2 complex; MD-2 of the bought TLR4•MD-2 complex; also called toll-like receptor 4 • MD-2 complex; source: bought: R&D Systems (catalog no. 3146-TM-050), lyophilized

[1] = biological target: T2, HMGB1 full-length (disulfide form) (UniProt P09429 1-215); assay: fluorescence anisotropy; 150 mM NaCl; value only in figure; affinity lower than Δ39; 10 mM potassium phosphate pH 7.4, 200 mM NaCl (32G) or 150 mM NaCl (J1), 4 nM FAM-DNA, 25 °C; conditions: protein: recombinant; label: 5'-FAM on J1A; four-way junction of 4 x 16-mer strands
[2] = biological target: T3, HMGB1 Δ39 (disulfide form) (UniProt P09429 1-176, del177-215); assay: fluorescence anisotropy; 150 mM NaCl; value only in figure; affinity higher than full-length; 10 mM potassium phosphate pH 7.4, 200 mM NaCl (32G) or 150 mM NaCl (J1), 4 nM FAM-DNA, 25 °C; conditions: protein: recombinant; label: 5'-FAM on J1A; four-way junction of 4 x 16-mer strands
[3] = biological target: HMGB1 Δ40 (disulfide form) (UniProt P09429 1-175, del176-215); assay: fluorescence anisotropy; 200 mM NaCl; value only in figure; as strong as Δ39; 10 mM potassium phosphate pH 7.4, 200 mM NaCl (32G) or 150 mM NaCl (J1), 4 nM FAM-DNA, 25 °C; conditions: protein: recombinant; label: 5'-FAM; G-quadruplex
[4] = biological target: HMGB1 Δ44 (disulfide form) (UniProt P09429 1-171, del172-215); assay: as above; conditions: protein: recombinant; label: 5'-FAM; G-quadruplex
[5] = biological target: T2, HMGB1 full-length (disulfide form); assay: fluorescence anisotropy; 200 mM NaCl; value only in figure; affinity lower than Δ39; 10 mM potassium phosphate pH 7.4, 200 mM NaCl (32G) or 150 mM NaCl (J1), 4 nM FAM-DNA, 25 °C; conditions: protein: recombinant; label: 5'-FAM; G-quadruplex
[6] = biological target: T3, HMGB1 Δ39 (disulfide form); assay: fluorescence anisotropy; 200 mM NaCl; value only in figure; affinity higher than full-length; 10 mM potassium phosphate pH 7.4, 200 mM NaCl (32G) or 150 mM NaCl (J1), 4 nM FAM-DNA, 25 °C; conditions: protein: recombinant; label: 5'-FAM; G-quadruplex

T1 sequence (O00206 24-631, chain 1 of 2): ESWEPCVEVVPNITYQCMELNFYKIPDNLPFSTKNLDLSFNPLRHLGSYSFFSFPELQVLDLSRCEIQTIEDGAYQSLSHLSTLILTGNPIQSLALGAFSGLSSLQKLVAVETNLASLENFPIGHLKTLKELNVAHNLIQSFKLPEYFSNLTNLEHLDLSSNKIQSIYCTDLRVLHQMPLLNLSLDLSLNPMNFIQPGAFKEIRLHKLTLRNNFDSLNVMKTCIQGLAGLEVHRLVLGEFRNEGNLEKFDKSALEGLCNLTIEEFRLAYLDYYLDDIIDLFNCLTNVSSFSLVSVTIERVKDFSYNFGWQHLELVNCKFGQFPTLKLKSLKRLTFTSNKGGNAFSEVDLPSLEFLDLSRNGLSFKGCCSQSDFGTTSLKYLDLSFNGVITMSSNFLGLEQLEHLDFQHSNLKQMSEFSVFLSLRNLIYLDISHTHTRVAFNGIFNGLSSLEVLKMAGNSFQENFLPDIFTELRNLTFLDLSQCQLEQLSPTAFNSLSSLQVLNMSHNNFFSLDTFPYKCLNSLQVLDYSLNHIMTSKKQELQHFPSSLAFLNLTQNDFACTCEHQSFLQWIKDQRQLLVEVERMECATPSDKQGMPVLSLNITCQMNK
T1 sequence (Q9Y6Y9 19-160, chain 2 of 2): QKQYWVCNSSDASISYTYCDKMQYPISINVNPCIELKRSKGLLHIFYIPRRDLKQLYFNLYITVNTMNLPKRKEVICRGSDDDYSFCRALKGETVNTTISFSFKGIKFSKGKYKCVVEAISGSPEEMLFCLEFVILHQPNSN

Kd (TLR4•MD-2 complex): 367 nM
B1: full-length (FL) disulfide HMGB1 protein (high-mobility-group-box-1, oxidized) (natural protein, UniProt P09429 1-215, looked up)
chain: MGKGDPKKPRGKMSSYAFFVQTCREEHKKKHPDASVNFSEFSKKCSERWKTMSAKEKGKFEDMAKADKARYEREMKTYIPPKGETKKKFKDPNAPKRPPSAFFLFCSEYRPKIKGEHPGLSIGDVAKKLGEMWNNTAADDKQPYEKKAAKLKEKYEKDIAAYRAKGKPDAAKKGVVKAEKSKKKKEEEEDEEDEEDEEEEEDEEDEDEEEDDDDE
modifications: disulfide bond between Cys23 and Cys45
notes: 215 residues (D/E repeats are residues 186-215); also called FL HMGB1; intact disulfide HMGB1; source: E. coli BL21(DE3), purified (SP-FF cation exchange, Resource-Q anion exchange, Sephacryl S-100 HR SEC)

Kd (TLR4•MD-2 complex): 25 nM
B2: Δ39 variant of disulfide HMGB1 (lacks the C-terminal 39 residues) (domain or fragment, UniProt P09429 1-176, looked up)
chain: MGKGDPKKPRGKMSSYAFFVQTCREEHKKKHPDASVNFSEFSKKCSERWKTMSAKEKGKFEDMAKADKARYEREMKTYIPPKGETKKKFKDPNAPKRPPSAFFLFCSEYRPKIKGEHPGLSIGDVAKKLGEMWNNTAADDKQPYEKKAAKLKEKYEKDIAAYRAKGKPDAAKKGVV
modifications: disulfide bond between Cys23 and Cys45
notes: HMGB1 of GenBank CAG33144.1 with a stop codon at K177; lacks residues 177-215, ends at V176; also called Δ39 product; source: E. coli BL21(DE3), purified (SP-FF cation exchange, Resource S cation exchange, Sephacryl S-100 HR SEC)

B3: Holliday junction J1 (J1A/J1B/J1C/J1D) (structured_DNA)
DNA 1: CGCAATCCTGAGCACG
DNA 2: CGTGCTCACCGAATGC
DNA 3: GCATTCGGACTATGGC
DNA 4: GCCATAGTGGATTGCG
binding result [1]: binds
binding result [2]: binds

Binder: AGGGCGGTGTGGGAAGAGGGAAGAGGGGGAGG (structured_DNA) [FAM-32G G-quadruplex]
binding result [3]: binds
binding result [4]: binds
binding result [5]: binds
binding result [6]: binds
